Measured values: patent US20020164657A1 (published 2002)

Target: T1, Aβ 1-42
T1 construct: Obtained from Bachem, dissolved in 50% DMSO and used as the aggregated (insoluble) form; also called aggregated Aβ 1-42; beta-amyloid peptide 1-42
Assay: co-sedimentation with Aβ 1-42, SDS-PAGE densitometry
Description: Samples were centrifuged at 12,000×g in a micro centrifuge for 5 min. The supernatants were removed, and the pellets washed once with 40 mM Tris, pH 7.5, 10 mM MgCI₂, 1 mM DTT and centrifuged again. The pellets were resuspended in 100 μl buffer, electrophoresed on 12% SDS-PAGE next to the corresponding supernatant, and stained with Coomassie Blue R-250.

T1 sequence (peptide, as listed by the source): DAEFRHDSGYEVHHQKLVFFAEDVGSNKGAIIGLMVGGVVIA

binding result: no binding
B1: N-terminal tau (M1-238S) (other)
chain: MAEPRQEFEVMEDHAGTYGLGDRKDQGGYTMHQDQEGDTDAGLKAEEAGIGDTPSLEDEAAGHVTQARMVSKSKDGTGSDDKKAKGADGKTKIATPRGAAPPGQKGQANATRIPAKTPPAPKTPPSSGEPPKSGDRSGYSSPGSPGTPGSRSRTPSLPTPPTREPKKVAVVRTPPKSPSS
notes: also called N-terminal tau domain (IM-238S)
